# Data from patent US11278600B2, “Human alpha-galactosidase variants” (Codexis, Inc., priority 2014, dated 2022).
# B1: 247 (protein)
# chain: LDNGLARTPTMGWLHWERFMCNLDCQEEPDSCISEKLFMEMAELMVSEGWKDAGYEYLCIDDCWMAPQRDSEGRLQADPQRFPHGIRQLANYVHSKGLKLGIYADVGNKTCAGFPGSFGYYDIDAQTFADWGVDLLKFDGCYCDSLENLADGYKHMSLALNRTGRSIVYSCEWPLYMWPFQKPNYTEIRQYCNHWRNFADIDDSWASIKSILDWTSFNQEKIVDVAGPGGWNDPDMLVIGNFGLSWDQQVTQMALWAIMAAPLFMSNDLRHISPQAKALLQDKDVIAINQDPLGKQGYQLRQGDNFEVWERPLSGLAWAVAVINRQEIGGPRSYTIAVASLGDGVACNPACFITQLLPVKRKLGFYEWTSRLKSHINPTGTVLLQLENTMQMSLKDLL
# modifications: Synthetic Polypeptide sequence of Variant No. 247 of mature Human GLA
# B2: 249 (protein)
# chain: LDNGLARTPTMGWLHWERFMCNLDCQEEPDSCISEKLFMEMAELMVSEGWKDAGYEYLCIDDCWMAPQRDSEGRLQADPQRFPHGIRQLANYVHSKGLKLGIYADVGNKTCAGFPGSFGYYDIDAQTFADWGVDLLKFDGCYCDSLENLADGYKHMSLALNRTGRSIVYSCEWPLYMWPFQKPNYTEIRQYCNHWRNFADIDDSWASIKSILDWTSFNQETIVDVAGPGGWNDPDMLVIGNFGLSWNQQVTQMALWAIMAAPLFMSNDLRHISPQAKALLQDKDVIAINQDPLGKQGYQLRQGDNFEVWERPLSGLAWAVAVINRQEIGGPRSYTIAVASLGKGVACNPACFITQLLPVKRKLGFYEWTSRLKSHINPTGTVLLQLENTMQMSLKDLL
# modifications: Synthetic Polypeptide sequence of Variant No. 249 of mature Human GLA
# B3: 250 (protein)
# chain: LDNGLARTPTMGWLHWERFMCNLDCQEEPDSCISEKLFMEMAELMVSEGWKDAGYEYLCIDDCWMAPQRDSEGRLQADPQRFPHGIRQLANYVHSIGLKLGIYADVGNKTCAGFPGSFGYYDIDAQTFADWGVDLLKFDGCYCDSLENLADGYKHMSLALNRTGRSIVYSCEWPLYMWPFQKPNYTEIRQYCNHWRNFADIDDSWASIKSILDWTSRNQERIVDVAGPGGWNDPDMLVIGNFGLSWNQQVTQMALWAIMAAPLFMSNDLRHISPQAKALLQDKDVIAINQDPLGKQGYQLRQGDNFEVWERPLSGLAWAVAMINRQEIGGPRSYTIAVASLGKGVACNPACFITQLLPVKRKLGFYEWTSRLRSHINPTGTVLLQLENTMQMSLKDLL
# modifications: Synthetic Polypeptide sequence of Variant No. 250 of mature Human GLA
# B4: 252 (protein)
# chain: LDNGLARTPTMGWLHWERFMCNLDCQEEPDSCISEKLFMEMAELMVSEGWKDAGYEYLCIDDCWMAPQRDSEGRLQADPQRFPHGIRQLANYVHSIGLKLGIYADVGNKTCAGFPGSFGYYDIDAQTFADWGVDLLKFDGCYCDSLENLADGYKHMSLALNRTGRSIVYSCEWPLYMWPFQKPNYTEIRQYCNHWRNFADIDDSWASIKSILDWTSFNQERIVDVAGPGGWNDPDMLVIGNFGLSWDQQVTQMALWAIMAAPLFMSNDLRHISPQAKALLQDKDVIAINQDPLGKQGYQLRQGDNFEVWERPLSGLAWAVAMINRQEIGGPRSYTIAVASLGKGVACNPGCFITQLLPVKRKLGFYDWDSRLRSHINPTGTVLLQLENTMQMSLKDLL
# modifications: Synthetic Polypeptide sequence of Variant No. 252 of mature Human GLA
# B5: 251 (protein)
# chain: LDNGLARTPTMGWLHWERFMCNLDCQEEPDSCISEKLFMEMAELMVSEGWKDAGYEYLCIDDCWMAPQRDSEGRLQADPQRFPHGIRQLANYVHSIGLKLGIYADVGNKTCAGFPGSFGYYDIDAQTFADWGVDLLKFDGCYCDSLENLADGYKHMSLALNRTGRSIVYSCEWPLYMWPFQKPNYTEIRQYCNHWRNFADIDDSWASIKSILDWTSRNQERIVDVAGPGGWNDPDMLVIGNFGLSWDQQVTQMALWAIMAAPLFMSNDLRHISPQAKALLQDKDVIAINQDPLGKQGYQLRQGDNFEVWERPLSGLAWAVAMINRQEIGGPRSYTIAVASLGKGVACNPACFITQLLPVKRKLGFYEWTSRLRSHINPTGTVLLQLENTMQMSLKDLL
# modifications: Synthetic Polypeptide sequence of Variant No. 251 of mature Human GLA
# B6: 248 (protein)
# chain: LDNGLARTPTMGWLHWERFMCNLDCQEEPDSCISEKLFMEMAELMVSEGWKDAGYEYLCIDDCWMAPQRDSEGRLQADPQRFPHGIRQLANYVHSKGLKLGIYADVGNKTCAGFPGSFGYYDIDAQTFADWGVDLLKFDGCYCDSLENLADGYKHMSLALNRTGRSIVYSCEWPLYMWPFQKPNYTEIRQYCNHWRNFADIDDSWASIKSILDWTSFNQETIVDVAGPGGWNDPDMLVIGNFGLSWNQQVTQMALWAIMAAPLFMSNDLRHISPQAKALLQDKDVIAINQDPLGKQGYQLRQGDNFEVWERPLSGLAWAVAVINRQEIGGPRSYTIAVASLGGGVACNPACFITQLLPVKRKLGFYEWTSRLKSHINPTGTVLLQLENTMQMSLKDLL
# modifications: Synthetic Polypeptide sequence of Variant No. 248 of mature Human GLA
# What was measured:
# Format in all cases: biochemical
# [1] = HTP-analysis of supernatants pretreated with base (MUGal hydrolysis); conditions: challenge at pH 7.6; activity of the variant/activity of Rd2BB (SEQ ID NO: 10); yeast culture supernatant
# Summary of the method: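 GLA variants were secreted by transformed INVSc1 yeast grown 66-84 h at 30° C. Supernatants were exposed to neutral-to-basic buffers (pH 7.0-9.7) at 37° C for 1-18 h, then assayed with MUGal in acidic citrate/McIlvaine buffer, with fluorescence read after quenching.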
# [2] = HTP-analysis of supernatants pretreated with acid (MUGal hydrolysis); conditions: challenge at pH 4.2; activity of the variant/activity of Rd2BB (SEQ ID NO: 10); yeast culture supernatant
# Summary of the method: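 Yeast INVSc1 supernatant, GLA variants; acid challenge: McIlvaine pH 3.3-4.3, 37° C., 1-3 h. Assay: MUGal in McIlvaine pH 4.8 plus citrate pH 4.3, 37° C., 30-180 min, Na2CO3 stop, Ex 355/Em 448 nm.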
# [3] = HTP-analysis of supernatants pretreated with bovine serum (MUGal hydrolysis); conditions: activity of the variant/activity of Rd2BB (SEQ ID NO: 10), yeast culture supernatant
# Protocol: Yeast (INVSc1) cells transformed with vectors expressing GLA and GLA variants using the lithium acetate method were selected on SD-Ura agar plates. After 72 h incubation at 30° C. colonies were placed into the wells of Axygen® 1.1 ml 96-well deep well plates filled with 200 μl/well SD-Ura broth (2 g/L SD-Ura, 6.8 g/L yeast nitrogen base without amino acids [Sigma Aldrich]), 3.06 g/L sodium dihydrogen phosphate, 0.804 g/L disodium hydrogen phosphate, pH 6.0 supplemented with 6% glucose. The cells were allowed to grow for 20-24 hours in a Kuhner shaker (250 rpm, 30° C., and 85% relative humidity). Overnight culture samples (20 μL) were transferred into Corning Costar® 96-well deep plates filled with 380 µL of SD-ura broth supplemented with 2% glucose. The plates were incubated for 66-84 h in a Kuhner shaker (250 rpm, 30° C., and 85% relative humidity). The cells were then pelleted (4000 rpm×20 min), and the supernatants isolated and stored at 4° C. prior to analysis.
# GLA variants were challenged with bovine serum to simulate the conditions the variants encounter following infusion into a patient. First, 20 μL of yeast culture supernatant and 80 μL, of bovine serum were added to the wells of a 96-well round bottom plate. The plates were sealed and incubated at 37° C. for 1 h. For the assay, 50 μL of serum-challenged sample was mixed with 25 μL, of 1 M citrate buffer pH 4.3 and 25 μL, of 4 mM MUGal in McIlvaine buffer pH 4.8. The reactions were mixed briefly and incubated at 37° C. for 180 minutes, prior to quenching with 100 μL, of 1 M sodium carbonate. Hydrolysis was analyzed using a SpectraMax® M2 microplate reader monitoring fluorescence (Ex. 355 nm, Em. 448 nm).
# [4] = HTP-analysis of yeast culture supernatants, no challenge (MUGal hydrolysis); conditions: activity of the variant/activity of Rd2BB (SEQ ID NO: 10), yeast culture supernatant
# Summary of the method: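 GLA variants expressed in yeast INVSc1, secreted into SD-Ura broth over 66-84 h at 30° C; clarified supernatants tested without challenge. Supernatant mixed with McIlvaine buffer pH 4.8 and 2 mM MUGal (citrate/KCl, pH 4.6), 37° C for 30-180 min, carbonate-quenched, fluorescence Ex 355/Em 448 nm.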
Molecule,Relative Activity of GLA Variants After Challenge at pH 7.6 [1],Relative Activity of GLA Variants After Challenge at pH 4.2 [2],Relative Activity of GLA Variants After Challenge with Serum [3],Relative Activity of GLA Variants After No Challenge (NC) [4]
B1,+++ (+++ = >2.5 relative activity over Rd2BB (SEQ ID NO: 10)),+++ (+++ = >2.5 relative activity over Rd2BB (SEQ ID NO: 10)),+++ (+++ = >2.5 relative activity over Rd2BB (SEQ ID NO: 10)),+++ (+++ = >2.5 relative activity over Rd2BB (SEQ ID NO: 10))
B2,+++ (+++ = >2.5 relative activity over Rd2BB (SEQ ID NO: 10)),++ (++ = 1.5 to 2.5 relative activity over Rd2BB (SEQ ID NO: 10)),++ (++ = 1.5 to 2.5 relative activity over Rd2BB (SEQ ID NO: 10)),++ (++ = 1.5 to 2.5 relative activity over Rd2BB (SEQ ID NO: 10))
B3,+ (+ = 0.5 to 1.5 relative activity over Rd2BB (SEQ ID NO: 10)),+ (+ = 0.5 to 1.5 relative activity over Rd2BB (SEQ ID NO: 10)),+ (+ = 0.5 to 1.5 relative activity over Rd2BB (SEQ ID NO: 10)),+ (+ = 0.5 to 1.5 relative activity over Rd2BB (SEQ ID NO: 10))
B4,+++ (+++ = >2.5 relative activity over Rd2BB (SEQ ID NO: 10)),+++ (+++ = >2.5 relative activity over Rd2BB (SEQ ID NO: 10)),+++ (+++ = >2.5 relative activity over Rd2BB (SEQ ID NO: 10)),+++ (+++ = >2.5 relative activity over Rd2BB (SEQ ID NO: 10))
B5,++ (++ = 1.5 to 2.5 relative activity over Rd2BB (SEQ ID NO: 10)),+ (+ = 0.5 to 1.5 relative activity over Rd2BB (SEQ ID NO: 10)),+ (+ = 0.5 to 1.5 relative activity over Rd2BB (SEQ ID NO: 10)),++ (++ = 1.5 to 2.5 relative activity over Rd2BB (SEQ ID NO: 10))
B6,+ (+ = 0.5 to 1.5 relative activity over Rd2BB (SEQ ID NO: 10)),+ (+ = 0.5 to 1.5 relative activity over Rd2BB (SEQ ID NO: 10)),+ (+ = 0.5 to 1.5 relative activity over Rd2BB (SEQ ID NO: 10)),+ (+ = 0.5 to 1.5 relative activity over Rd2BB (SEQ ID NO: 10))
